Key:
[1] = biological target: T1, A2 subunit of factor VIIIa (Homo sapiens, UniProt P00451); experiment: Apparent KdA2 of dEGR-IXa proteins: inhibition of IXaWT:A2 subunit interaction in the tenase system; format: biochemical; conditions: for Kd: values from FIG. 3, read-out: App KdA2; for ΔG°A2: ΔG° = RTlnKd, 298 Kelvin
T1 construct: cleaved by thrombin at R372-S373, R740-S741, and R1689-S1690 to yield factor VIIIa
T1 sequence (P00451 392-759): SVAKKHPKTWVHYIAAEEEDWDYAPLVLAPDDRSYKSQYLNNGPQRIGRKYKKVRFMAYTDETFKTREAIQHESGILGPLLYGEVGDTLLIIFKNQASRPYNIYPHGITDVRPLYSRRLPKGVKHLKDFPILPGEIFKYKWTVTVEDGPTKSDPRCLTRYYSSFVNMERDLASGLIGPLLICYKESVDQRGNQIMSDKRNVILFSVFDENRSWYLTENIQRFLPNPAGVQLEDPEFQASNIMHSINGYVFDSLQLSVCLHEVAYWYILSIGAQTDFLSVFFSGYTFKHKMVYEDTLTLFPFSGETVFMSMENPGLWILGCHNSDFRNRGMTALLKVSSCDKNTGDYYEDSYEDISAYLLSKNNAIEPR
Procedure: Determination of KdA2 of Binding of dEGR-IXa Proteins to A2 Subunit.
The apparent Kd (termed KdA2) for binding of each dEGR-IXa protein to the A2 subunit was determined by its ability to inhibit factor IXaWT:A2 subunit interaction in the tenase complex as described earlier for intact factor VIIIa (Mather and Bajaj, 1999; Mather et al., 1997). The reactions were carried out as described for the EC50 experiments above except dEGR-IXa and IXaWT were mixed prior to addition of the A2 subunit; this ensured steady state conditions. Mixtures contained 100 nM IXaWT, 30 nM A2 subunit, 250 nM factor X, 25 μM PL, and various concentrations of dEGR-IXa proteins in TBS/BSA, pH 7.5 containing 5 mM CaCl2. The IC50 (concentration of inhibitor required for 50% inhibition) was determined by fitting the data to the IC50 four-parameter logistic equation of Halfman (1981) given below (Eq. 2). [formula]
where y is the rate of Xa formation in the presence of a given concentration of dEGR-IXa protein represented by x, a is the maximum rate of factor Xa formation in the absence of dEGR-IXa, and s is the slope factor. Each point was weighted equally, and the data were fitted to Equation 2 using the nonlinear regression analysis program GraFit from Erithacus Software. […] To obtain KdA2 values for the interaction of dEGR-IXa proteins with A2, we used the following equation (Eq. 3) as described by Cheng and Prusoff (1973) and further elaborated by Craig (1993). [formula]
where A is the concentration of IXaWT, and EC50 is the concentration of factor IXaWT that gives a 50% maximum response in the absence of the competitor at a specified concentration of factor X used in the experiment.

[2] = biological target: T1, A2 subunit of factor VIIIa; experiment: EC50 (functional Kd) of interaction of factor IXa proteins with A2 subunit, factor Xa generation (S-2222); format: biochemical; conditions: 5 nM factor IXa, 250 nM factor X, 25 μM PL, 5 mM CaCl2 (FIG. 1)
Procedure: Determination of EC50 of Interaction of Factor IXa Proteins with A2 Subunit.
The EC50 (functional Kd) of binding of each factor IXa protein with A2 subunit was measured essentially as described previously for its interaction with intact factor VIIIa (Mather and Bajaj, 1999; Mather et al., 1997). For these experiments, concentrations of factor IXa and factor X were kept constant, and the rates of formation of factor Xa were determined at increasing concentrations of A2 subunit. Reaction mixtures contained 5 nM IXa protein, 250 nM factor X, 25 μM PL and various concentrations of A2 subunit in TBS/BSA, pH 7.5 containing 5 mM CaCl2. Reactions were carried out at 37° C. for 5-20 minutes and stopped by adding 1 μL of 500 mM EDTA. The amount of factor Xa generated was determined by S-2222 hydrolysis as described previously (Mather and Bajaj, 1999; Mather et al., 1997). The EC50 was obtained by fitting the data to a single site ligand binding equation (Eq. 1) by non-linear regression analysis using the program GraFit from Erithacus Software. [formula]
Where V is the rate of formation of factor Xa at a given concentration of the A2 subunit, denoted by L, and Vmax is the rate of factor Xa formation by the factor IXa:A2 subunit complex. EC50 is the functional Kd defined as the concentration of free A2 subunit yielding 50% of the Vmax. The background rate of factor Xa generation was obtained by carrying out the reaction in the absence of the A2 subunit.

[3] = biological target: T1, A2 subunit of factor VIIIa; experiment: Fluorescence quenching of the dansyl moiety in dEGR-IXa by the A2 subunit; format: binding; conditions: for Change in dansyl fluorescence emission intensity on titration with A2 subunit: 100 μM PL (FIG. 4)
Procedure: Fluorescence Quenching of the Dansyl Moiety in dEGR-IXa by the A2 Subunit.
The effect of the A2 subunit on the emission intensity of the dansyl moiety in each dEGR-IXa protein was determined using the SLM AB2 spectrofluorometer. Each reaction mixture contained 220 nM dEGR-IXa in 20 mM Hepes, pH 7.2, 100 mM NaCl, 5 mM CaCl2, 0.01% Tween, 200 μg/ml BSA and 100 μM PL vesicles. The excitation wavelength was 340 nm (slit width, 8 nm) and the emission wavelength was 540 nm (slit width; 8 nm). First, blank values (in triplicate) were obtained for the buffer containing PL. dEGR-IXa was then added and the emission intensity in the absence of the A2 subunit was recorded. Each reaction mixture was subsequently titrated with the A2 subunit and the emission readings (in triplicate) were obtained at each time point. The fluorescence emission intensity at each point was corrected for increases in the reaction volume prior to analysis of the data. […] Data are presented as F/F0 where F0 is the emission intensity in the absence of A2 subunit and F is the intensity at a given A2 subunit concentration.

Substance	Change in ΔG°A2 between the mutant and WT [1] [kcal/mol]	Fold-change in apparent KdA2 (mutant/WT) [1]	Kd [1] [nM]	ΔG°A2 [1] [kcal/mol]	Ability of the A2 subunit to enhance/potentiate the factor X-activating activity of the IXa protein [2]	EC50 (functional Kd), apparent Kd of interaction with the A2 subunit, single site-binding model [2]	Change in dansyl fluorescence emission intensity on titration with A2 subunit ([3]; 220 nM dEGR-IXa protein)	EC50 ([2]; read-out: EC50 (functional Kd), apparent Kd of interaction with the A2 subunit, single site-binding model) [nM]	Plateau value for F/F0 ([3]; bimolecular association model fit, 220 nM dEGR-IXa protein, 100 μM PL)	Kd ([3]; bimolecular association model fit, read-out: Apparent KdA2 from fluorescence quenching) [nM]
IXaR333Q: activated factor IX point mutant in which Arg333 is replaced by Gln	1.72	~15	1850 ± 82	7.82	severely impaired	could not be calculated	little if any change	–	–	–
IXaWT: activated recombinant wild-type factor IX (IXWT)	–	–	100 ± 11	9.54	–	–	dose-dependent decrease	257 ± 31	0.59±0.05	~100
